The record followed here is US20240238445A1, “INHIBITORS AND USES THEREOF” (NEURACLE SCIENCE CO., LTD., priority 2021, published 2024).

In test [1] the target is binding of FAM19A5 protein to LRRC4B (amino acids 453-576)-hFc (Homo sapiens, UniProt Q7Z5A7). The test can be described thus: Competitive inhibition assay, plate coated with LRRC4B (amino acids 453-576)-hFc, peptides at 20 nM. From the text:
Next, to assess whether polypeptides comprising the binding domains of LRRC4 or LRRC4C proteins can have similar inhibitory effects on LRRC4B protein binding, the following synthetic peptides were constructed: (1) FBC4-23 (contains the binding domain of the LRRC4 protein, i.e., YSFFTTVTVETTE); and (2) FBC4C-23 (contains the binding domain of the LRRC4C protein, i.e., FSYFSTVTVETME). Then, the ability of the peptides to inhibit the binding of LRRC4 protein family members to FAM19A5 protein was assessed using a competitive inhibition assay. Briefly, plates were coated with 100 nM of either LRRC4B protein fragment #1 (amino acids 36-576 of SEQ ID NO: 2; SEQ ID NO: 5) or LRRC4B protein fragment #2 (amino acids 453-576 of SEQ ID NO: 2; SEQ ID NO: 7). Then, recombinant FAM19A5 protein (5 ng/ml for plates coated with LRRC4B fragment #1; and 1 ng/mL for plates coated with LRRC4B fragment #2) was added to the plates in combination with 20 nM of the FBC4-23, FBC4C-23, and FB-20 peptides. The plates were incubated at 37° C. and then, the amount of FAM19A5 protein bound to the coated LRRC4B protein fragments was assessed using HRP-conjugated anti-FAM19A5 (1-65) antibody.
Next, to determine the minimal sequence required to inhibit the interaction of FAM19A5 and members of the LRRC4 protein family, ten FB-20 peptide variants were constructed by serially deleting one or more amino acids from the N-terminus or C-terminus of the FB-20 peptide. Then, a competitive inhibition assay was used to assess the ability of the different FB-20 peptide variants to inhibit the interaction between FAM19A5 and LRRC4B protein. Again, plates were coated with 100 nM of either LRRC4B protein fragment #1 (amino acids 36-576 of SEQ ID NO: 2; SEQ ID NO: 5) or LRRC4B protein fragment #2 (amino acids 453-576 of SEQ ID NO: 2; SEQ ID NO: 7). Then, recombinant FAM19A5 protein (5 ng/ml for plates coated with LRRC4B fragment #1; and 1 ng/mL for plates coated with LRRC4B fragment #2) was added to the plates in combination with 20 nM of the different peptides described above. After incubating the plates at 37° C., the amount of FAM19A5 protein bound to the coated LRRC4B protein fragments was assessed using HRP-conjugated anti-FAM19A5 (1-65) antibody.
To identify the critical amino acid residues, multiple FB-20 peptide mutants were constructed, in which the individual residues of the core binding domain (i.e., YTYFTTVTVETLE; SEQ ID NO: 15) were substituted with alanine (A) or asparagine (N). Then, the ability of these FB-20 peptide mutants to inhibit the interaction between LRRC4B and FAM19A5 proteins was assessed, as described in Examples 3 and 4.

For test [2], the target named is binding of FAM19A5 protein to full-length ectodomain of LRRC4C protein (Homo sapiens, UniProt Q7Z5A7). The test can be described thus: Competitive inhibition assay, plate coated with full-length ectodomain of LRRC4C. Conditions: FAM19A5 5 ng/mL; 100 nM/well coat. The protocol: As described in Example 3, there appeared to be much similarity in the binding domains of the different members of the LRRC4 family. […] Then, recombinant FAM19A5 protein (5 ng/mL) was added in combination with one of the following: (i) LRRC4B (484-576) protein fragment, (ii) LRRC4B (453-576, AA) protein fragment, and (iii) synthetic FB-20 peptide. The plates were incubated at 37° C., and then, the amount of FAM19A5 protein bound to the coated LRRC4, LRRC4B, or LRRC4C proteins was measured using anti-FAM19A5 (1-65) antibody.
binding of FAM19A5 protein to full-length ectodomain of LRRC4C protein, sequence (Q7Z5A7 44-132): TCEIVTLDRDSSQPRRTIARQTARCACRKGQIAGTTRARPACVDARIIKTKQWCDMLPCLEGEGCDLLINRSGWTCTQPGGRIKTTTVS

Test [3] concerns APP/PS1 mice (Alzheimer mouse model). As to the kind of experiment: Synaptic formation in hippocampal CA1 and CA3 of APP/PS1 mice. The format is in vivo. Conditions: 30 mg/kg intravenous, four consecutive weeks, compared to mutant LRRC4B protein fragment. As for the experimental part:
FIGS. 16A, 16B, and 16C show the ability of LRRC4B peptide fragment (amino acid residues 453-576 of SEQ ID NO: 2; “WT”) (i.e., SEQ ID NO: 7) to promote synaptic formation in the hippocampal CA1 of APP/PS1 mice. As further described in Example 8, APP/PS1 mice were treated with the LRRC4B peptide fragment (30 mg/kg; intravenous administration) for four consecutive weeks, and then synaptic formation was assessed by fluorescence microscopy using antibodies against SYP and PSD95. Control animals received no treatment (“Cont”) or the mutant LRRC4B peptide fragment […] (i.e., comprising alanine substitutions at positions 488 and 489 of SEQ ID NO: 2; SEQ ID NO: 16). FIG. 16A provides representative fluorescent photomicrographs. FIGS. 16B and 16C show the SYP and PSD95 intensity, respectively.
FIGS. 17A, 17B, and 17C show the ability of LRRC4B peptide fragment (amino acid residues 453-576 of SEQ ID NO: 2; “WT”; SEQ ID NO: 7) to promote synaptic formation in the hippocampal CA3 of APP/PS1 mice. The animals were treated and analyzed as described in FIGS. 16A-16C. FIG. 17A provides representative fluorescent photomicrographs. FIGS. 17B and 17C show the SYP and PSD95 intensity, respectively.
Additionally, to confirm the above effect on neurite outgrowth in vivo, APP/PS1 mice (Alzheimer mouse model) were used. […] Hong et al., Science 352(6286): 712-716 (May 2016). […]

binding of FAM19A5 protein to LRRC4B (amino acids 453-576)-hFc, sequence (Q7Z5A7 44-132): as above

As for GYTYFTTVTVETLETQPGEE [FB-20], the “Inhibition rate (%) LRRC4B (amino acids 453-576)-hFc” value in test [1] (Table 8, 20 nM peptide, FAM19A5 1 ng/mL) came to 63.2%; in test [1] (Table 9, deletion variants, 20 nM peptide, FAM19A5 1 ng/mL), 62.0%; in test [1] (Table 10, alanine/asparagine mutants), 63.2%. In test [2], the “inhibition of FAM19A5 binding to coated LRRC4C protein (in words)” value is “able to inhibit FAM19A5 protein from binding”.

B1: LRRC4B (453-576): LRRC4B ectodomain fragment, amino acids 453-576 of SEQ ID NO: 2; FLAG-tagged or hFc-fused (protein)
chain: VSAVDPVAAGGTGSGGGGPGGSGGVGGGSGGYTYFTTVTVETLETQPGEEALQPRGTEKEPPGPTTDGVWGGGRPGDAAGPASSSTTAPAPRSSRPTEKAFTVPITDVTENALKDLDDVMKTTK
modifications: FLAG tag or human Fc
notes: FLAG-tagged or hFc-fused
Turning to B1, the “SYP and PSD95 immunoreactivities in CA1 and CA3” value in test [3] was “increased SYP and PSD95 immunoreactivities in CA1 and CA3”.
